Reference: article PMC8248988, “A signal capture and proofreading mechanism for the KDEL-receptor explains selectivity and dynamic range in ER retrieval” (eLife, 2021)
One block for each molecule: values may come before it. Ends that are not written are not given here.

How the values were obtained:
[1] = target: [3H]-TAEKDEL retrieval-signal peptide (UniProt P11021); assay: in vitro binding assay of Bräuer et al. 2019 (not described here; presumably the same [3H]-TAEKDEL filter-binding assay); details: pH 6.4; cited from earlier work
[2] = target: [3H]-TAEHDEL retrieval-signal peptide K to H at position -4 relative to TAEKDEL (K651H in human BiP numbering) (UniProt P11021); assay: radioligand filter-binding assay, direct titration (scintillation counting); details: 20°C, 40 mM Sodium Chloride, 20 mM MES pH 5.4 (default), the buffers used for the other pH values of Figure 3f (up to pH 7.0) are not stated
[3] = target: [3H]-TAEKDEL retrieval-signal peptide (UniProt P11021); assay: as above; details: pH 5.4; 20°C; 40 mM Sodium Chloride; 20 mM MES pH 5.4 (default); the buffers used for the other pH values of Figure 3f (up to pH 7.0) are not stated
[4] = target: TAEHDEL retrieval-signal peptide (unlabelled) K to H at position -4 relative to TAEKDEL (K651H in human BiP numbering) (UniProt P11021); assay: radioligand filter-binding assay, competition of unlabelled peptide against [3H]-TAEHDEL; details: pH 5.4; 20°C; 40 mM Sodium Chloride; 20 mM MES pH 5.4 (default assay buffer 'unless stated otherwise'; pH not restated for this experiment)
[5] = target: TAEKDEL retrieval-signal peptide (unlabelled) (UniProt P11021); assay: as above; details: pH 5.4; 20°C; 40 mM Sodium Chloride; 20 mM MES pH 5.4 (default assay buffer 'unless stated otherwise'; pH not restated for this experiment)
[6] = target: TAERDEL retrieval-signal peptide (unlabelled) K to R at position -4 relative to TAEKDEL (K651R in human BiP numbering) (UniProt P11021); assay: as above; details: pH 5.4; 20°C; 40 mM Sodium Chloride; 20 mM MES pH 5.4 (default assay buffer 'unless stated otherwise'; pH not restated for this experiment)
[7] = target: T1, TAEKDEL retrieval signal peptide (BiP) (Homo sapiens); assay: [3H]-peptide filter binding assay
T1 chain: TAEKDEL

[8] = target: T2, TAEHDEL retrieval signal peptide; assay: [3H]-peptide filter binding assay
T2 chain: TAEHDEL

[9] = target: T3, TAEDDEL retrieval signal peptide; assay: peptide binding assay
T3 chain: TAEDDEL

[10] = target: T4, TAERDEL retrieval signal peptide; assay: peptide binding assay
T4 chain: TAERDEL

[11] = target: T2, TAEHDEL retrieval signal peptide; assay: competition binding with [3H]-TAEHDEL
[12] = target: T5, TAEHDEL-CONH retrieval signal peptide; assay: competition binding with [3H]-TAEHDEL
T5 chain: TAEHDEL-NH2

[13] = target: T1, TAEKDEL retrieval signal peptide (BiP); assay: [3H]-peptide filter binding assay, pH 5.4
[14] = target: T2, TAEHDEL retrieval signal peptide; assay: [3H]-peptide filter binding assay, pH 5.4

[3H]-TAEHDEL retrieval-signal peptide K to H at position -4 relative to TAEKDEL (K651H in human BiP numbering), sequence (P11021 whole entry K651H, looked up, tested part not stated): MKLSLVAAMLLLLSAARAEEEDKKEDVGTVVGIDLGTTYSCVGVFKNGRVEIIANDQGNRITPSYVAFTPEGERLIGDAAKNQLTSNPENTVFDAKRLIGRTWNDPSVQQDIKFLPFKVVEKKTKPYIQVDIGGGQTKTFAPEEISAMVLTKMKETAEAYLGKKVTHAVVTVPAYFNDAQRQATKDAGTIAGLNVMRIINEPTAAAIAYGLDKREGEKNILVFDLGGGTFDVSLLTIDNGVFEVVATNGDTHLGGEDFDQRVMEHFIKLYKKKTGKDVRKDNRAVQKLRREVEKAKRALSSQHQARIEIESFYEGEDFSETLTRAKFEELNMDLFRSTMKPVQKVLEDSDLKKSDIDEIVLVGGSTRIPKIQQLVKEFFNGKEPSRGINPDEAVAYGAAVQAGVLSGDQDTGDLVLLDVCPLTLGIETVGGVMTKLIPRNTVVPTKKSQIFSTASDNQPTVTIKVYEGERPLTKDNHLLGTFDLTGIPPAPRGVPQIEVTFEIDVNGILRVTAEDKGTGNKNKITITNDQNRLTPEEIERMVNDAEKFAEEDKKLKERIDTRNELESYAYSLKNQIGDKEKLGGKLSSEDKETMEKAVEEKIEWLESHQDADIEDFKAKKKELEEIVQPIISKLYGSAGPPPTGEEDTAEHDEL
[3H]-TAEKDEL retrieval-signal peptide, sequence (P11021 whole entry, looked up, tested part not stated): as the sequence (P11021 whole entry K651H, looked up, tested part not stated) above, with H651K counted along it
TAEHDEL retrieval-signal peptide (unlabelled) K to H at position -4 relative to TAEKDEL (K651H in human BiP numbering), sequence (P11021 whole entry K651H, looked up, tested part not stated): as the sequence (P11021 whole entry K651H, looked up, tested part not stated) above
TAERDEL retrieval-signal peptide (unlabelled) K to R at position -4 relative to TAEKDEL (K651R in human BiP numbering), sequence (P11021 whole entry K651R, looked up, tested part not stated): as the sequence (P11021 whole entry K651H, looked up, tested part not stated) above, with H651R counted along it
TAEKDEL retrieval-signal peptide (unlabelled), sequence (P11021 whole entry, looked up, tested part not stated): as the sequence (P11021 whole entry K651H, looked up, tested part not stated) above, with H651K counted along it

KD ([2]; pH 5.4): 0.26 ± 0.04 µM
fraction of maximal binding ([2]; pH 6.4): ~ 60% maximal binding
KD [3]: 1.9 ± 0.46 µM
KD (apparent, from IC50) [4]: KD 0.24 µM
KD (apparent, from IC50) [5]: KD 1.94 µM
KD (apparent, from IC50) [6]: KD 2.71 µM
Molecule: KDEL receptor 2 (KDELR2, ER lumen protein-retaining receptor 2), wild type
fraction of maximal binding [1]: <20%

Kd [7]: 1.94 µM
Kd [8]: 0.24 µM
Kd [9]: 14.9 µM
Kd [10]: 2.71 µM
IC50 [11]: 19 µM
IC50 [12]: 1700 µM
Kd [13]: 1.9 µM
Kd [14]: 0.26 µM
B1: KDEL receptor 2 (protein)
chain: MNIFRLTGDLSHLAAIIILLLKIWKSRSCAGISGKSQLLFALVFTTRYLDLFTSFISLYNTSMKLIYIACSYATVYLIYMKFKATYDGNHDTFRVEFLIVPVGGLSFLVNHDFSPLEILWTFSIYLESVAILPQLFMISKTGEAETITTHYLFFLGLYRALYLVNWIWRYYFEGFFDLIAVVAGVVQTVLYCDFFYLYVTKVLKGKKLSLPA
